For experiment [1], the target named is recombinant human CD38 (soluble CD38) (Homo sapiens, UniProt P28907). As to the kind of experiment: BLI.
Experiment [2] deals with CD38 expressed on the plasma membrane of tumour cell lines (Homo sapiens, UniProt P28907). As to the kind of experiment: cell-based or functional assay.

B1: daratumumab (antibody, V domains shown)
VH: EVQLLESGGGLVQPGGSLRLSCAVSGFTFNSFAMSWVRQAPGKGLEWVSAISGSGGGTYYADSVKGRFTISRDNSKNTLYLQMNSLRAEDTAVYFCAKDKILWFGEPVFDYWGQGTLVTVSS
VL: not shown
As for B1, the equilibrium dissociation constant (Kd) in experiment [1] turned out to be 3.9 nM. For the same molecule, in experiment [2], the “CD38 cyclase activity on Daudi cells, EC50” value was 0.179 µg/mL and the “CD38 hydrolase activity on Daudi cells, EC50” value worked out at 0.028 µg/mL.

B2: HexaBody-CD38 (GEN3014), hexamerization-enhanced human IgG1 with the E430G Fc mutation (antibody, V domains shown)
VH: QVQLVQSGAEVKKPGSSVKVSCKAFGGTFSSYAISWVRQAPGQGLEWMGRIIRFLGIANYAQKFQGRVTLIADKSTNTAYMELSSLRSEDTAVYYCAGEPGERDPDAVDIWGQGTMVTVSS
VL: DIQMTQSPSSLSASVGDRVTITCRASQGIRSWLAWYQQKPEKAPKSLIYAASSLQSGVPSRFSGSGSGTDFTLTISSLQPEDFATYYCQQYNSYPLTFGGGTKVEIK
As to B2, the dissociation constant (Kd) in experiment [1] amounted to 1.1 nM. Also, in experiment [2], the “CD38 cyclase activity on Daudi cells (NGD+ to cGDPR), EC50” value turned out to be 0.419 µg/mL and the “CD38 hydrolase activity on Daudi cells (ε-NAD+ to ε-ADPR), EC50” value came to 0.335 µg/mL.

Source of the values: PMC10320249 (eBioMedicine, 2023).
